From the supplement of paper PMC9170038 come the findings set out here.

For this data set, the system named is MS2 coat protein. Put plainly: apparent KD of MS2 coat protein; higher = weaker reporter binding. To be noted: Eterna round: R107. In outline: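 Designed RNA switches were transcribed on-chip from Illumina sequencing clusters. SNAP-549-labelled MS2 coat protein was titrated onto them in twofold steps from 0.7 or 1.5 nM to 3 µM in 100 mM Tris-HCl pH 7.5, 80 mM KCl, 4 mM MgCl2, either without or with constant ligand. Apparent KD reflects the per-design median of normalised cluster binding-curve fits.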

Where [1] appears, read: input ligand: theophylline 20 uM.
Where [2] appears, read: input ligand: theophylline 2 mM.
[3] abbreviates: input ligand: tryptophan 2.4 mM.

For “AGGUGCGGCACGGCCGCCACUGCGGUGGUGUGACAUGAGGAUCACCCAUGUUGUCAUGCGGCCCUUAGGACCGGGUGGCGUGCCU [#1 Exclusion - Tryptophan B Attempt #16 (HarryS)]”, the “apparent KD of MS2 coat protein” value by setting is: (input ligand: arginine 13.2 mM) 27.9 nM; under setting [1], 64.4 nM; under setting [2], 68.9 nM.
With “AGUACUCGAACGGAUACCAGCCGGACAUGAGGAUCACCCAUGUCCUACCAUGUUUCGGUUGGCCCUUGGCAGCCGUUCGUGUACA [Omei Theo B SS A v1]”, the “apparent KD of MS2 coat protein” value by setting is: (input ligand: arginine 13.2 mM) 207 nM; under setting [1], 428 nM; under setting [3], 736 nM.
As to “AGUACUCGAACGGAUACCAGCCGGACAUGAGGAUCACCCAUGUCCUACCAUUGUUCGGUUGGCCCUUGGCAGCCGUUCGUGUACA [Omei Theo B SS A v4]”, the “apparent KD of MS2 coat protein” value runs as follows: (input ligand: arginine 13.2 mM) 125 nM; (input ligand: none) 930 nM; under setting [1], 366 nM; under setting [2], 26.7 nM; under setting [3], 591 nM.
On to “AGUAUACAUUCUGAUACCAGAGACAUGAGGAUCACCCAUGUCCGAUCGUCCUGCCUCAGACUCCCUUGGCAGCAGGAUAUGUGCU [Exclusion Theophylline B GF5]”, for which the “apparent KD of MS2 coat protein” value by setting is: (input ligand: arginine 13.2 mM) 16.2 nM; under setting [1], 21.8 nM; under setting [3], 16.6 nM.
For the sequence “AGUCUUAAAGGAAGGAGCGCAGUCAUAACAUGAGGAUCACCCAUGUCGAGGUGAGGGUCAUUGCAGGUAGGUCGCCUUACUAAGA [Same State - Arginine B (Freestyle 6)]”, the “apparent KD of MS2 coat protein” value (input ligand: arginine 13.2 mM) came out at 77.7 nM; the “apparent KD of MS2 coat protein” value (input ligand: none) was determined as 114 nM; the “apparent KD of MS2 coat protein” value under setting [1] worked out at 118 nM; the “apparent KD of MS2 coat protein” value under setting [2] came to 132 nM; the “apparent KD of MS2 coat protein” value under setting [3] turned out to be 96.1 nM.
As to “AGUCUUAAUGGAAGGAGCGCAGUCAUAACAUGAGGAUCACCCAUGUCGAGGUGAGGGUCAUUGCAGGUAGGUCGCCAUACUAGAA [Same State - Arginine B (Freestyle 1)]”, the “apparent KD of MS2 coat protein” value runs as follows: (input ligand: arginine 13.2 mM) 131 nM; (input ligand: none) 153 nM; under setting [1], 222 nM; under setting [2], 186 nM; under setting [3], 125 nM.
The matching figures for “AGUGAUGACCGAAGGAGCGCGGGAAACAUGAGGAUCACCCAUGUACUCCUCAGUGUUAUAACGCAGGUAGGUCGCGGUUAUGGCU [X-ArgiB-ms2@26]”: 148 nM, 180 nM, 296 nM, 328 nM and 279 nM.
The matching figures for “AGUUAAAUAUGUUAAUAACUAUUUACUGAAGGAGCGUGUUUUUACACAGGUAGGUCGCAGUGACAUGAGGAUCACCCAUGUAGUA [JR_SSArginiA_Sub012]”: 31.3 nM, 37.5 nM, 49.7 nM, 43.5 nM and 33.4 nM.
In the same order, the values of “AUACAUGAGGAUCACCCAUGUCAUUCAGAAGGAGCGUCAUUAUUGACAGGUAGGUCGCUGAUAAAAUUUUUAUACAUUAUGUUUA [JR_SSArginiA_Sub014]” are 31.9 nM, 16.3 nM, 20.9 nM, 18.1 nM and 17.3 nM.
With “AUACAUGAGGAUCACCCAUGUCAUUCAGAAGGAGCGUCAUUUUAGACAGGUAGGUCGCUGUUAUUUUUAUUAUUCUUUAUGUUUU [JR_Nu_ExcArginiA_Sub025]”, the “apparent KD of MS2 coat protein” value (input ligand: arginine 13.2 mM) is 19.4 nM; the “apparent KD of MS2 coat protein” value (input ligand: none) was determined as 20.1 nM; the “apparent KD of MS2 coat protein” value under setting [1] was found to be 27.2 nM; the “apparent KD of MS2 coat protein” value under setting [2] is 21.3 nM; the “apparent KD of MS2 coat protein” value under setting [3] is 20.5 nM.
With “AUAGUCUAGAGUGAUACCAGACAACAUGAGGAUCACCCAUGUAGCAUAUGGUUAUCAUGAGUCCCUUGGCAGCACGCAUGUAUAG [JR_ExcTheophyB_Sub012]”, the “apparent KD of MS2 coat protein” value came out at 13.4 nM (input ligand: arginine 13.2 mM), 19.9 nM under setting [1] and 13.2 nM under setting [3].
The matching figures for “AUAUGAAAGAGUGAUACCAGACUACAUGAGGAUCACCCAUGUGACAUUUAAAUAUCAUUUGUCCCUUGGCAGCACAUUAAGUACA [JR_Nu_ExcTheophyB_Sub021]”: 35.7 nM, 46.9 nM and 43 nM.
In the same order, the values of “AUAUGAUCAUAUGAUACCAGAAAUGGUAUUCCUUUGUUUCUUACAUGAGGAUCACCCAUGUUCCCUUGGCAGCAUAUGAUCAUAU [ETHB #2]” are 159 nM, 221 nM and 238 nM.
As for “AUAUGAUCAUGUGAUACCAGAAAUGGUAGUCCUCGCUGGAUUACAUGAGGAUCACCCAUGUUCCCUUGGCAGCAUAUGAUCAUAU [#02 Exclusion-TheophyllineB]”, the “apparent KD of MS2 coat protein” value amounted to 50.5 nM (input ligand: arginine 13.2 mM), 122 nM under setting [1] and 60.9 nM under setting [3].
Consider “AUAUUACAUGUUAUUAUACGGUAUACUGAUACCAGUGUUUCUAUUCACCCUUGGCAGCAGCAACAUGAGGAUCACCCAUGUAUUA [JR_SSTheophyA_Sub018]”, for which the “apparent KD of MS2 coat protein” value came to 15.6 nM (input ligand: arginine 13.2 mM), 19 nM under setting [1] and 18 nM under setting [3].
“AUCUCGUUCAAUAUACCGCCUUGACUAGAUACCAGCAUGGACCCAUGCCCUUGGCAGCUGGACAUGAGGAUCACCCAUGUUUCAG [SSTheo A #27]”: the “apparent KD of MS2 coat protein” value is 10.7 nM (input ligand: arginine 13.2 mM), 14.8 nM under setting [1] and 10.8 nM under setting [3].
Consider “AUGCAGAGCACGGCCGCCACUCCAUGUAUACAUGAGGAUCACCCAUGUAAUUUGUAUUUUUUAUAGAGGACCGGGUGAAAUGCAA [JR_SSTryptoB_Sub011]”, for which the “apparent KD of MS2 coat protein” value is, setting by setting: (input ligand: arginine 13.2 mM) 41.4 nM; under setting [1], 34.1 nM; under setting [2], 36.2 nM.
